This test addresses Acanthamoeba actin (Acanthamoeba).

Regarding Acanthamoeba actin (natural protein), the kon (as a rule, a measure of how fast the partners come together) is 7.8e+06 M⁻¹ s⁻¹.
